The values below come from PMC5134428.

The experiment concerns the target trypsin from porcine pancreas (porcine) (UniProt P00761).
Sequence of UniProt P00761 (P00761 9-231): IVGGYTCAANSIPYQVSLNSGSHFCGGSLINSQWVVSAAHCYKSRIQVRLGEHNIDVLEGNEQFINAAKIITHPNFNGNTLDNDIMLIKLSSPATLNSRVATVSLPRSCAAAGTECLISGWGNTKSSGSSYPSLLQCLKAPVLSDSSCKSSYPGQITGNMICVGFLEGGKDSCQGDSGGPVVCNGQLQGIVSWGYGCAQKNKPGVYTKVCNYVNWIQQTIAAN

B1: Bowman Birk inhibitor (BBI) from soybean (natural protein)
chain: DDESSKPCCDQCACTKSNPPQCRCSDMRLNSCHSACKSCICALSYPAQCFCVDITDFCYEPCKPSEDDKEN
In the case of B1, the IC50 of inhibition of trypsin activity (cleavage of the Arg6-Cys peptide, read by fluorescence of dC12-AgNCs-peptide/GO at 635 nm; 37 °C, 20 min, 2.0 mM phosphate buffer pH 7.4) came to 3.6 ng∙mL^−1.
